# From patent US20220016215A1, “GIP RECEPTOR AGONIST PEPTIDE COMPOUNDS AND USES THEREOF” (TAKEDA PHAARMACEUTICAL COMPANY LIMITED, priority 2018, published 2022)
# Residue numbers refer to the chain shown, from its start. Starred links: 1 amine or outer side, 2 acyl side, 3 side chain; linkers in the order of their positions; H or OH if unused. Non-standard residues stand in square brackets, D forms with d. Groups on a side chain read outwards from the residue. No end group written: not given here. *: point of attachment. C15 diacid = O=C(O)CCCCCCCCCCCCCC(=O)*; γGlu = O=C(O)[C@H](CCC(=O)[*:2])N[*:1]; Palmitoyl = CCCCCCCCCCCCCCCC(=O)*; acyl = not defined here; Aib = CC(C)(N)C(=O)O
# T1: human GIPR (human, UniProt P48546 22-466)
# T1 sequence (looked up): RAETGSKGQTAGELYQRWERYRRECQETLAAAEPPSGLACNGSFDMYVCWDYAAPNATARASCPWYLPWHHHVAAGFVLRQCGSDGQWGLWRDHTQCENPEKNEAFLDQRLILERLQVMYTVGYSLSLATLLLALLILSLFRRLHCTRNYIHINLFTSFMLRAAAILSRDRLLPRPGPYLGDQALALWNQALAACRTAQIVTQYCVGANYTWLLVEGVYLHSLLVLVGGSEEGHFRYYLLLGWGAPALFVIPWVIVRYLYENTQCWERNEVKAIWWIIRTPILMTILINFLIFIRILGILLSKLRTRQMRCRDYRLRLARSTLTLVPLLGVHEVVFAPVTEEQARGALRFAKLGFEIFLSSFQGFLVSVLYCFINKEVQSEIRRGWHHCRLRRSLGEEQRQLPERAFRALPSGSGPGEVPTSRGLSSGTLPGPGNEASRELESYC
# T2: human GIPR (Homo sapiens, UniProt P48546)
# T2 construct: expressed in transfected cells
# T2 sequence (P48546 22-466): T1 sequence (looked up)
# B1: Compound No. 26 (peptide)
# peptide: Y[Aib]EGTFISDYSIALDKK([ethylene glycol-ethylene glycol-C15 diacid])HQQDFVNWLLAQRG-OH
# B2: Compound No. 27 (peptide)
# peptide: Y[Aib]EGTFISDYSIALDKK([ethylene glycol-ethylene glycol-C15 diacid])HQQDFVNWLLAQR-NH2
# B3: Compound No. 5 (peptide)
# peptide: Y[Aib]EGTFISDYSIAMDKK([γGlu-Palmitoyl])HQQDFVNWLLAQKGKKNDWKHNIIQ-OH
# modifications: not fully specified; also: acyl given as C16DA in synthesis
# B4: Compound No. 8 (peptide)
# peptide: YXEGTFISDYSIXXDKIHQQDFVNWLLAQKGKKNDWKHNITQ
# modifications: 3,5-diBr-Tyr at 1; Aib at 2; Aib at 13; Nle at 14; C-terminal -OH
# B5: Compound No. 9 (peptide)
# peptide: B4 peptide with Y1F, S11X, X13A
# modifications: Aib at 2; X* = 1-amino,1-cyclopentane carboxylic acid at 11; Nle at 14; C-terminal -OH
# B6: Compound No. 14 (peptide)
# peptide: Y[dA]EGTFISDYSIAMDKIHQQDFVNWLLAQKGKKNDWKHNIIQ-NH2
# B7: Compound No. 16 (peptide)
# peptide: Y[Aib]EGTFTSDYSI[Aib]LDKIAQRAFVQWLIA[Aib]KGKKQEWKHQITQK(acyl)-NH2
# modifications: reading uncertain; also: Lys43 acylated, acyl not given here
# Molecular target: human GLP-1R (human, UniProt P43220 24-463)
# Experiment: cell-based or functional assay
# Conditions: not given
Molecule,GLP1R EC50 nM (B) [nM],GLP1R pEC50
B1,> 1000,< 9
B2,,6.02
B3,,7
B4,118,6.9
B5,> 1000,< 6
B6,933,6.03
B7,< 0.02,

# Molecular target: T1, human GIPR
# Experiment: cell-based or functional assay
# Conditions: not given
Molecule,GIPR EC50 nM (A) [nM],GIPR pEC50,"Selectivity Ratio (B/A), GLP1R EC50 over GIPR EC50"
B1,0.001,,
B2,0.001,,
B3,0.001,11.9,93300
B4,,10.7,5600
B5,0.004,11.4,> 100000
B6,0.001,12.3,
B7,0.001,12,

# Molecular target: T2, human GIPR
# Experiment: Agonist activity on human GIPR, CRE-luciferase reporter assay (increase in intracellular cAMP as indicator)
# Type: cell-based
# Conditions: GLP1R EC50 / GIPR EC50
# Text: The human GIPR gene having an identical sequence to Genebank Accession No. U39231 is cloned into a pMSRα-neo vector to prepare hGIPR/pMSRα-neo.
# (2) Construction of Reporter Plasmid Expressing Cell
# Luciferase reporter gene with a cAMP-responsive sequence located upstream is transferred to a CHO-K1 cell to construct a CRE-LUC/CHO-K1 cell.
# (4) Transfer of Human GIPR Gene to CRE-LUC/CHO-K1 Cell and Obtaining of Expressing Cell
# The plasmid hGIPR/pMSRα-neo obtained in (1) is transferred to the CRE-LUC/CHO-K1 cell obtained in (2) to obtain a transformant. Subsequently, the cell line inducing the luciferase expression, hGIPR/CRE-LUC/CHO-K1 cell, is selected from the obtained transformant by adding GIP.
# 25 μL each of the hGIPR/CRE-LUC/CHO-K1 cell is inoculated in a 384-well white plate (Corning) in such a way as to provide 5×10^3 cells/well and may be cultured in a HamF12 medium containing 10% fetal bovine serum, 100 U/mL penicillin, and 100 μg/mL streptomycin in a CO2 incubator at 37° C. overnight. 5 μL of a medium containing a test compound is added to the cells and incubated for 4 hours at the indicated concentration in a CO2 incubator at 37° C. Steady-Glo (Promega) is added in amounts of 30 μL and shaken under light shielding. Twenty minutes later, luciferase activity is measured using a plate reader Envision (PerkinElmer). The GIPR agonist activity is calculated with increase in intracellular cAMP concentration as the indicator when the luciferase activity in the presence of 10 nM of GIP was 100% and the luciferase activity in the case of adding DMSO instead of the test compound was 0%.
row,Molecule,Selectivity Ratio (B/A)
1,YD-AlaEGTFISDYSIAMD(Lys-(OEG-gGlu)2-Oda)IHQQDFVNWLLAQKGKICNDWKHNIIQ-NH2 [Compound 13],"21,369"
2,YAibEGTFISDYSIALDKIHQQ(Lys-(ethylene glycol)2-C15 diacid)FVNWLLAQRG-OH [Compound 24],82783
3,YAibEGTFISDYSIALDKIHQQ(Lys-(ethylene glycol)2-C15 diacid)FVNWLLAQRPSSGAPPPS-NH2 [Compound 29],">100,000"
4,CC[C@H](C)[C@H](NC(=O)[C@H](CO)NC(=O)[C@H](Cc1ccc(O)cc1)NC(=O)[C@H](CC(=O)O)NC(=O)[C@H](CO)NC(=O)[C@@H](NC(=O)[C@H](Cc1ccccc1)NC(=O)[C@@H](NC(=O)CNC(=O)[C@H](CCC(=O)O)NC(=O)[C@@H](C)NC(=O)[C@@H](N)Cc1ccc(O)cc1)[C@@H](C)O)[C@@H](C)CC)C(=O)N[C@@H](C)C(=O)N[C@@H](CCSC)C(=O)N[C@@H](CC(=O)O)C(=O)N[C@@H](CCCCN)C(=O)N[C@H](C(=O)N[C@@H](Cc1c[nH]cn1)C(=O)N[C@@H](CCC(N)=O)C(=O)N[C@@H](CCC(N)=O)C(=O)N[C@@H](CC(=O)O)C(=O)N[C@@H](Cc1ccccc1)C(=O)N[C@H](C(=O)N[C@@H](CC(N)=O)C(=O)N[C@@H](Cc1c[nH]c2ccccc12)C(=O)N[C@@H](CC(C)C)C(=O)N[C@@H](CC(C)C)C(=O)N[C@@H](C)C(=O)N[C@@H](CCC(N)=O)C(=O)N[C@@H](CCCCN)C(=O)NCC(=O)N[C@@H](CCCCN)C(=O)N[C@@H](CCCCN)C(=O)N[C@@H](CC(N)=O)C(=O)N[C@@H](CC(=O)O)C(=O)N[C@@H](Cc1c[nH]c2ccccc12)C(=O)N[C@@H](CCCCN)C(=O)N[C@@H](Cc1c[nH]cn1)C(=O)N[C@@H](CC(N)=O)C(=O)N[C@H](C(=O)N[C@H](C(=O)N[C@@H](CCC(N)=O)C(N)=O)[C@@H](C)CC)[C@@H](C)CC)C(C)C)[C@@H](C)CC [Compound 14],">100,000"
5,YAibEGTFISDYSIELEK(Lys-(ethylene glycol)2-C15 diacid)AQRAFVEWLLAQGPSSGAPPPS-NH2 [Compound 23],3364
6,YAibEGTFISDYSIALDKIHQQ(Lys-(ethylene glycol)2-C15 diacid)FVNWLLAQR-NH2 [Compound 28],">100,000"
7,YAibEGTFISDYSIALDKIHQQDFVNWLLAQ(Lys-(ethylene glycol)2-C15 diacid)G-OH [Compound 31],83090
8,YAibEGTFISDYS(Lys-(ethylene glycol)2-C15 diacid)ALDKIHQQDFVNWLLAQRG-OH [Compound 32],83090

# Same assay, conditions: hGIPR/CRE-LUC/CHO-K1 cells, 4 h incubation; read-out: GIPR EC50 nM (A)
row,Molecule,EC50 [nM]
1,CC[C@H](C)[C@H](NC(=O)[C@H](CO)NC(=O)[C@H](Cc1ccc(O)cc1)NC(=O)[C@H](CC(=O)O)NC(=O)[C@H](CO)NC(=O)[C@@H](NC(=O)[C@H](Cc1ccccc1)NC(=O)[C@@H](NC(=O)CNC(=O)[C@H](CCC(=O)O)NC(=O)[C@@H](C)NC(=O)[C@@H](N)Cc1ccc(O)cc1)[C@@H](C)O)[C@@H](C)CC)C(=O)N[C@@H](C)C(=O)N[C@@H](CCSC)C(=O)N[C@@H](CC(=O)O)C(=O)N[C@@H](CCCCN)C(=O)N[C@H](C(=O)N[C@@H](Cc1c[nH]cn1)C(=O)N[C@@H](CCC(N)=O)C(=O)N[C@@H](CCC(N)=O)C(=O)N[C@@H](CC(=O)O)C(=O)N[C@@H](Cc1ccccc1)C(=O)N[C@H](C(=O)N[C@@H](CC(N)=O)C(=O)N[C@@H](Cc1c[nH]c2ccccc12)C(=O)N[C@@H](CC(C)C)C(=O)N[C@@H](CC(C)C)C(=O)N[C@@H](C)C(=O)N[C@@H](CCC(N)=O)C(=O)N[C@@H](CCCCN)C(=O)NCC(=O)N[C@@H](CCCCN)C(=O)N[C@@H](CCCCN)C(=O)N[C@@H](CC(N)=O)C(=O)N[C@@H](CC(=O)O)C(=O)N[C@@H](Cc1c[nH]c2ccccc12)C(=O)N[C@@H](CCCCN)C(=O)N[C@@H](Cc1c[nH]cn1)C(=O)N[C@@H](CC(N)=O)C(=O)N[C@H](C(=O)N[C@H](C(=O)N[C@@H](CCC(N)=O)C(N)=O)[C@@H](C)CC)[C@@H](C)CC)C(C)C)[C@@H](C)CC [Compound 14],0.001
